Assay results: the supplement of paper PMC10567573

B1: TEKT4 (parent)
chain: SEVEELNMSLTALREKLLEAEQSL

Variants of: B1
Experiment: protein stability index of a GFP-peptide fusion (GPS, HEK-293T) (PSI 1-6); higher = more stable
Details: c terminus: a fixed tail appended
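Note: lentivirally expressed fusions sorted by FACS into six bins by GFP to DsRed ratio, PSI derived from sequencing read proportions per bin multiplied by bin number.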

| Variant | protein stability index |
| --- | --- |
| STVEELNMSLTALREKLLEAEQSL | 2.41 |
| SRVEELNMSLTALREKLLEAEQSL | 3.06 |
| SGVEELNMSLTALREKLLEAEQSL | 2.31 |
| SPVEELNMSLTALREKLLEAEQSL | 3.14 |
| SDVEELNMSLTALREKLLEAEQSL | 3.06 |
| SVVEELNMSLTALREKLLEAEQSL | 2.45 |
| SHVEELNMSLTALREKLLEAEQSL | 2.3 |
| SLVEELNMSLTALREKLLEAEQSL | 2.72 |
| SIVEELNMSLTALREKLLEAEQSL | 2.42 |
| SYVEELNMSLTALREKLLEAEQSL | 1.68 |
| SQVEELNMSLTALREKLLEAEQSL | 2.69 |
| SKVEELNMSLTALREKLLEAEQSL | 2.19 |
| SCVEELNMSLTALREKLLEAEQSL | 2.66 |
| SFVEELNMSLTALREKLLEAEQSL | 1.76 |
| SNVEELNMSLTALREKLLEAEQSL | 2.55 |
| SSVEELNMSLTALREKLLEAEQSL | 2.34 |
| SAVEELNMSLTALREKLLEAEQSL | 2.84 |
| SMVEELNMSLTALREKLLEAEQSL | 2.74 |
| SWVEELNMSLTALREKLLEAEQSL | 1.98 |
| SEVEELNMALTALREKLLEAEQSL | 3 |
| SEVEELNMLLTALREKLLEAEQSL | 2.3 |
| SEVEELNMPLTALREKLLEAEQSL | 2.85 |
| SEVEELNMTLTALREKLLEAEQSL | 2.67 |
| SEVEELNMCLTALREKLLEAEQSL | 2.6 |

| Variant | protein stability index |
| --- | --- |
| SEVEELNMILTALREKLLEAEQSL | 2.14 |
| SEVEELNMKLTALREKLLEAEQSL | 2.82 |
| SEVEELNMELTALREKLLEAEQSL | 2.95 |
| SEVEELNMNLTALREKLLEAEQSL | 3.06 |
| SEVEELNMDLTALREKLLEAEQSL | 3.57 |
| SEVEELNMYLTALREKLLEAEQSL | 2.33 |
| SEVEELNMMLTALREKLLEAEQSL | 2.4 |
| SEVEELNMGLTALREKLLEAEQSL | 2.61 |
| SEVEELNMFLTALREKLLEAEQSL | 2.28 |
| SEVEELNMRLTALREKLLEAEQSL | 3.13 |
| SEVEELNMWLTALREKLLEAEQSL | 2.85 |
| SEVEELNMVLTALREKLLEAEQSL | 1.66 |
| SEVEELNMHLTALREKLLEAEQSL | 3.28 |
| CEVEELNMSLTALREKLLEAEQSL | 2.63 |
| WEVEELNMSLTALREKLLEAEQSL | 2.26 |
| REVEELNMSLTALREKLLEAEQSL | 2.19 |
| GEVEELNMSLTALREKLLEAEQSL | 3.25 |
| HEVEELNMSLTALREKLLEAEQSL | 3.19 |
| DEVEELNMSLTALREKLLEAEQSL | 3.64 |
| MEVEELNMSLTALREKLLEAEQSL | 2.27 |
| EEVEELNMSLTALREKLLEAEQSL | 3.28 |
| TEVEELNMSLTALREKLLEAEQSL | 2.6 |
| KEVEELNMSLTALREKLLEAEQSL | 2.23 |
| PEVEELNMSLTALREKLLEAEQSL | 2.94 |

| Variant | protein stability index |
| --- | --- |
| AEVEELNMSLTALREKLLEAEQSL | 3.43 |
| FEVEELNMSLTALREKLLEAEQSL | 2.31 |
| YEVEELNMSLTALREKLLEAEQSL | 2.31 |
| QEVEELNMSLTALREKLLEAEQSL | 3.52 |
| NEVEELNMSLTALREKLLEAEQSL | 2.2 |
| VEVEELNMSLTALREKLLEAEQSL | 2.76 |
| IEVEELNMSLTALREKLLEAEQSL | 2.37 |
| LEVEELNMSLTALREKLLEAEQSL | 2.96 |
| SEVQELNMSLTALREKLLEAEQSL | 2.32 |
| SEVMELNMSLTALREKLLEAEQSL | 2.07 |
| SEVDELNMSLTALREKLLEAEQSL | 2.63 |
| SEVIELNMSLTALREKLLEAEQSL | 2.59 |
| SEVCELNMSLTALREKLLEAEQSL | 2.29 |
| SEVTELNMSLTALREKLLEAEQSL | 2.59 |
| SEVWELNMSLTALREKLLEAEQSL | 1.68 |
| SEVGELNMSLTALREKLLEAEQSL | 2.89 |
| SEVKELNMSLTALREKLLEAEQSL | 2.24 |
| SEVPELNMSLTALREKLLEAEQSL | 2.73 |
| SEVRELNMSLTALREKLLEAEQSL | 2.02 |
| SEVHELNMSLTALREKLLEAEQSL | 2.06 |
| SEVVELNMSLTALREKLLEAEQSL | 2.58 |
| SEVSELNMSLTALREKLLEAEQSL | 2.71 |
| SEVLELNMSLTALREKLLEAEQSL | 2.26 |
| SEVAELNMSLTALREKLLEAEQSL | 1.86 |

| Variant | protein stability index |
| --- | --- |
| SEVYELNMSLTALREKLLEAEQSL | 1.99 |
| SEVFELNMSLTALREKLLEAEQSL | 2.34 |
| SEVNELNMSLTALREKLLEAEQSL | 3.12 |
| SEVEVLNMSLTALREKLLEAEQSL | 2.64 |
| SEVESLNMSLTALREKLLEAEQSL | 3.06 |
| SEVEILNMSLTALREKLLEAEQSL | 1.95 |
| SEVEMLNMSLTALREKLLEAEQSL | 2.22 |
| SEVEQLNMSLTALREKLLEAEQSL | 2.72 |
| SEVEWLNMSLTALREKLLEAEQSL | 1.79 |
| SEVELLNMSLTALREKLLEAEQSL | 2.43 |
| SEVERLNMSLTALREKLLEAEQSL | 2.35 |
| SEVENLNMSLTALREKLLEAEQSL | 2.63 |
| SEVEFLNMSLTALREKLLEAEQSL | 2.76 |
| SEVEDLNMSLTALREKLLEAEQSL | 2.63 |
| SEVEALNMSLTALREKLLEAEQSL | 2.37 |
| SEVEKLNMSLTALREKLLEAEQSL | 2.6 |
| SEVECLNMSLTALREKLLEAEQSL | 2.31 |
| SEVEPLNMSLTALREKLLEAEQSL | 2.63 |
| SEVEHLNMSLTALREKLLEAEQSL | 2.72 |
| SEVEYLNMSLTALREKLLEAEQSL | 2.03 |
| SEVEGLNMSLTALREKLLEAEQSL | 2.73 |
| SEVETLNMSLTALREKLLEAEQSL | 2.54 |
